According to publication PMC7139703, “Thiopurine Derivative-Induced Fpg/Nei DNA Glycosylase Inhibition: Structural, Dynamic and Functional Insights” (International Journal of Molecular Sciences, 2020):

Columns and labels:
Assay in all cases: EMSA
[1] = biological target: ∆hNeil1 (truncated hNeil1) (human) (UniProt Q96FI4); conditions: 8% DMSO, no inhibitor, named hNeil1 in the sentence, N at position 7 of strand 1 = tetrahydrofuran (THF) abasic site analog, opposite C, EMSA: 0.1 nM probe, 25 mM HEPES/NaOH pH 7.5, 150 mM NaCl, 5% glycerol, 0.1 mg/mL BSA, 4 °C, 30 min, 10% native PAGE at 4 °C
∆hNeil1 (truncated hNeil1) (human), sequence (Q96FI4 whole entry, the tested form may be a part): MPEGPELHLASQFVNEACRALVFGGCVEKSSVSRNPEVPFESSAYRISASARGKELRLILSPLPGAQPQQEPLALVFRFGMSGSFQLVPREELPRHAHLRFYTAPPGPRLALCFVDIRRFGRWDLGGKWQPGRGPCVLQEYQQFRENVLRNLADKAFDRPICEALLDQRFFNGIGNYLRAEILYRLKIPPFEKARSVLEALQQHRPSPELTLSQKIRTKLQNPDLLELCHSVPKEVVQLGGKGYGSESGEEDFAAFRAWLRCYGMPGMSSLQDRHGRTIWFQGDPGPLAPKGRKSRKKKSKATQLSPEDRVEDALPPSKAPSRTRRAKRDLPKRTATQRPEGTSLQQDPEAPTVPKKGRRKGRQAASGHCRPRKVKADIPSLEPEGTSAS

mvNei1 (mimivirus) = conditions: N at position 7 of strand 1 = tetrahydrofuran (THF) abasic site analog, opposite C; EMSA: 0.1 nM probe, 25 mM HEPES/NaOH pH 7.5, 150 mM NaCl, 5% glycerol, 0.1 mg/mL BSA, 8% DMSO, 4 °C, 30 min; 10% native PAGE at 4 °C
[2] = biological target: T1, LlFpg (Lactococcus lactis) (UniProt P42371); conditions: 8% DMSO, no inhibitor, complex C1 (1:1), N at position 7 of strand 1 = tetrahydrofuran (THF) abasic site analog, opposite C, EMSA: 0.1 nM probe, 25 mM HEPES/NaOH pH 7.5, 150 mM NaCl, 5% glycerol, 0.1 mg/mL BSA, 4 °C, 30 min, 10% native PAGE at 4 °C
T1 sequence: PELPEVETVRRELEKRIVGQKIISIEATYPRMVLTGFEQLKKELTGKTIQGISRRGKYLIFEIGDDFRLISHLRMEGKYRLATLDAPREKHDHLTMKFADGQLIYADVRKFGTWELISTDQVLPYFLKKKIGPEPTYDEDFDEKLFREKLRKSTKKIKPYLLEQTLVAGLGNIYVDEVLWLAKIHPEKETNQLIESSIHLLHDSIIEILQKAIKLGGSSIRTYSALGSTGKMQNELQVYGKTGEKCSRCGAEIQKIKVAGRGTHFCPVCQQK

CTCTTTNTTTCTCG / GCGAGAAACAAAGA [14-mer THF:C]
K half [1]: 7 nM | K half (mvNei1 (mimivirus)): 5 nM | K half [2]: 0.25 nM
